How the values were obtained:
Conditions in all cases: tags: His-MBP N-terminal (TEV added during purification)
CbAgo [1] = molecular target: T1, CbAgo (Clostridium butyricum, UniProt P0DYD1 SEQ:1-748); experiment: EMSA; DNA guide, RNA target, 37 C
Protocol: (§1) CbAgo (10 pmol) was pre-incubated with the desired polynucleotide guide (RNA guide: 7024, DNA guide: 3466, 10 pmol) for 5 min at 37° C. This was followed by addition of a target polynucleotide (RNA target: […]: 7043, 10 pmol) and another incubation step of 5 min at 37° C. The reactions were then resolved on a 6% Native PAGE gel and stained with SYBR gold.

CbAgo [2] = molecular target: T1, CbAgo; experiment: EMSA; RNA guide, RNA target, 37 C
Protocol: as §1

CbAgo [3] = molecular target: T1, CbAgo; experiment: EMSA; DNA guide preloaded, 37 C; target printed as 7043 in text, 7023 in Table 2
Protocol: as §1

CbAgo [4] = molecular target: T1, CbAgo; experiment: EMSA; RNA guide, DNA target, 37 C; target printed as 7043 in text, 7023 in Table 2
Protocol: as §1

B1: DNA guide 3466 ; RNA target 7022 (ssDNA ; ssRNA)
DNA: TGAGGTAGTAGGTTGTATAGT
RNA: AAACGACGGCCAGUGCCAAGCUUACUAUACAACCUACUACCUCAU
modifications: 5'-phosphate ; 5'-phosphate
Question: Does B1 bind (CbAgo [1])?
Answer: Result: binds

B2: RNA guide 7024 ; RNA target 7022 (ssRNA ; ssRNA)
RNA 1: UGAGGUAGUAGGUUGUAUAGU
RNA 2: B1 RNA
modifications: 5'-phosphate ; 5'-phosphate
Question: Does B2 bind (CbAgo [2])?
Answer: Result: binds

B3: DNA guide 3466 ; DNA target 7023 (ssDNA ; ssDNA)
DNA 1: TGAGGTAGTAGGTTGTATAGT
DNA 2: AAACGACGGCCAGTGCCAAGCTTACTATACAACCTACTACCTCAT
modifications: 5'-phosphate ; 5'-phosphate
Question: Does B3 bind (CbAgo [3])?
Answer: Result: binds

B4: RNA guide 7024 ; DNA target 7023 (ssRNA ; ssDNA)
RNA: UGAGGUAGUAGGUUGUAUAGU
DNA: B3 DNA 2
modifications: 5'-phosphate ; 5'-phosphate
Question: Does B4 bind (CbAgo [4])?
Answer: Result: binds
